Where two headings read alike, the source gives them in different places.

Test [1] addresses T1, recombinant SARS-CoV-2 RBD with C-terminal AviTag (SARS-CoV-2, UniProt P0DTC2 319-541). Briefly: ELISA, competition with coated ACE2-Fc for RBD [Cont. 9]. On the technique in general: ELISA stands for enzyme-linked immunosorbent assay.
The target of test [2] is SARS-COV-2 Wuhan Reference RBD (SARS-CoV-2, UniProt P0DTC2 319-541). Briefly: ELISA, RBD coated.
For test [3], the target named is T1, recombinant SARS-CoV-2 RBD with ….
Test [4] has the same target. The source holds these as a separate data set.

B1: PP1108 MBP-5HVZ-PAPA-RN-23-H6 (VHH)
VHH: QVQLVESGGGLVQPGGSLRLSCAASGGEKSISAAHWYRQAPGKEREFVAAITAASTTSYADSVKGRFTISRDNAKNTVYLQMNSLKPEDTAVYYCTAVLYDSYDYWGQGTQVTVSS
notes: Form: Dimer
The IC50 is the concentration that inhibits the measured activity by half. For orientation: EC50 means the concentration giving half of the maximal effect. Lower therefore signals a more potent agent. For the molecule B1, the concentration for half-maximal inhibition (IC50) in test [1] was 380 nM. This molecule yielded an EC50 in test [2] of 2.61 nM.

B2: PP1115 MBP-5HVZ-PAPA-RN-31-H6 (VHH)
VHH: QVQLVESGGGLVQPGGSLRLSCAASGSTGSDYAMHWFRQAPGKDREWVAGISSYGSDSYGDSVKGRFTISRDNAKNTVYLQMNSLKPEDTAVYYCAALQASAGAGYYYDYWGQGTQVTVSS
notes: Form: Dimer
Turning to B2, the IC50 in test [1] stood at 11.6 nM. The molecule also showed an EC50 in test [2] of 4.9 nM.

B3: PP1107 MBP-5HVZ-PAPA-RN-22-H6 (VHH)
VHH: QVQLVESGGGLVQPGGSLRLSCAASGSISEINLLHWFRQAPGKQREWVATMTSGGSTDYADSVKGRFTISRDNAKNTVYLQMNSLKPEDTAVYYCAADEFTKYGHGRYWGQGTQVTVSS
notes: Form: Dimer
Consider B3, for which the IC50 in test [1] is 3.9 nM. The molecule also returned a concentration for a half-maximal effect (EC50) in test [2] of 0.27 nM.

B4: PP1111 MBP-5HVZ-PAPA-RN-27-H6 (VHH)
VHH: QVQLVESGGGLVQPGGSLRLSCAASGPQFSSNAVSWFRQAPGKEREWVAGITSGGSTDYADSVKGRFTISRDNAKNTVYLQMNSLKPEDTAVYYCTAPSVSDADRRTRDYWGQGTQVTVSS
notes: Form: Dimer
For B4, the IC50 in test [1] was 9.4 nM. Further, a half-maximal response in test [2] (EC50) required 0.33 nM.

B5: PP1103 MBP-5HVZ-PAPA-RN-18-H6 (VHH)
VHH: QVQLVESGGGLVQPGGSLRLSCAASGYYFQIVAMHWYRQAPGKEREGVAGITSTGSTYYGDSVKGRFTISRDNAKNTVYLQMNSLKPEDTAVYYCNAVSTDAQGAAEYWGQGTQVTVSS
notes: Form: Dimer
With B5, in test [1], the IC50 was found to be 53.3 nM. In test [2], this molecule gave a concentration giving a half-maximal response (EC50) of 2.4 nM.

B6: PP1110 MBP-5HVZ-PAPA-RN-26-H6 (VHH)
VHH: QVQLVESGGGLVQPGGSLRLSCAASGSISSINSMHWYRQAPGKEREWVAAVSSYGSDYYADSVKGRFTISRDNAKNTVYLQMNSLKPEDTAVYYCAARTVTGFTYGDYWGQGTQVTVSS
notes: Form: Dimer
As for B6, the IC50 in test [1] was 156 nM. The molecule further showed an EC50 in test [2] of 3.5 nM.

B7: PP1154 MBP-5HVZ-PAPA-R5d-G1-H6 (VHH)
VHH: QVQLVESGGGLVQPGGSLRLSCAASGSIFGINDVHWFRQAPGKEREFVATITNGLSARYKDSVKGRFTISRDNAKNTVYLQMNSLKPEDTAVYYCAAQVYITTYELYDYWGQGTQVTVSS
notes: Form: Dimer
For the molecule B7, the EC50 in test [2] was 2.42 nM.

B8: MBP-5HVZ-R5A-A1-H6 (VHH, not shown: large carriers; small tags and cut ends)
VHH: QVQLVESGGGLVQPGGSLRLSCAASGAELSYTAIHWFRQAPGKQREFVATINSGGSSYYADSVKGRFTISRDNAKNTVYLQMNSLKPEDTAVYYCTALLDSTYDYWGQGTQVTVSS
For orientation: Kd means the concentration at which binding is half-saturated. For the molecule B8, in test [3], the half-inhibitory concentration (IC50) worked out at 3.4 nM and the Kd was 29 nM.

B9: R5A-C5 (competition ELISA sample) (VHH)
VHH: QVQLVESGGGLVQPGGSLRLSCAASGDIFSINALHWFRQAPGKQREEVAAITSGGSTGYADSVKGRFTISRDNAKNTVYLQMNSLKPEDTAVYYCAAQQARGGLDSDYWGQGTQVTVSS
Turning to B9, in test [3], the IC50 turned out to be 1.4 nM and the Kd came out at 7.04 nM.

B10: MBP-5HVZ-R2E-F4-H6 (VHH, not shown: large carriers; small tags and cut ends)
VHH: QVQLVESGGGLVQPGGSLRLSCAASGETFSSNAMHWFRQAPGKGREFVAAITSGGNDNYSDSVKGRFTISRDNAKNTVYLQMNSLKPEDTAVYYCNAPATEDTSHYPRNYWGQGTQVTVSS
As to B10, in test [3], the IC50 was 6.3 nM and the Kd was 11.4 nM.

B11: PP1101 MBP-5HVZ-PAPA-RN-16-H6 (VHH)
VHH: QVQLVESGGGLVQPGGSLRLSCAASGADFSSNAMHWFRQAPGKAREFVASIDSDKSGYYADSVKGRFTISRDNAKNTVYLQMNSLKPEDTAVYYCNAYSGTDNYGYDYWGQGTQVTVSS
notes: Form: Dimer
Take B11: the IC50 in test [1] is 13.9 nM. In test [2], this molecule had an EC50 of 1.56 nM.

B12: PP912 MBP-5HVZ-S2b-G8-H6 (VHH)
VHH: QVQLVESGGGLVQPGGSLRLSCAASGSIQSYEAMHWFRQAPGKAREWVAVITWGDSTQYGDSVKGRFTISRDNAKNTVYLQMNSLKPEDTAVYYCAADVRQGYSSWGQGTQVTVSS
notes: Form: Dimer
In test [2], B12 registered an EC50 of 2.33 nM. This counts as single-digit nanomolar.

B13: PP1099 MBP-5HVZ-PAPA-RN-12-H6 (VHH)
VHH: QVQLVESGGGLVQPGGSLRLSCAASGSSFEGNAVHWFRQAPGKNREFVATITTSTSYYYADSVKGRFTISRDNAKNTVYLQMNSLKPEDTAVYYCAARLKDRGPQSEYDYWGQGTQVTVSS
notes: Form: Dimer
Turning to B13, the midpoint of the response in test [2], the EC50, lay at 4.24 nM.

B14: PP1102 MBP-5HVZ-PAPA-RN-17-H6 (VHH)
VHH: QVQLVESGGGLVQPGGSLRLSCAASGSMYSRAVMHWFRQAPGKEREGVASIGRTGDSYYADSVKGRFTISRDNAKNTVYLQMNSLKPEDTAVYYCAADNLDVVYGNRYWGQGTQVTVSS
notes: Form: Dimer
As for B14, the IC50 in test [1] came out at 2.4 nM. In test [2], it took 0.97 nM to reach a half-maximal effect (EC50).

B15: MBP-R5A-A5-H6 (VHH, not shown: large carriers; small tags and cut ends)
VHH: QVQLVESGGGLVQPGGSLRLSCAASGSAFATNGLHWFRQAPGKQREFVAGITSNGSINYKDSVKGRFTISRDNAKNTVYLQMNSLKPEDTAVYYCTALLMSYGGGEEYDYWGQGTQVTVSS
As to B15, the Kd in test [3] is ~920 nM.

B16: MBP-5HVZ-R5A-A5-H6 (VHH, not shown: large carriers; small tags and cut ends)
VHH: B15 VHH
On to B16, for which, in test [3], the IC50 worked out at 4.4 nM and the Kd came out at 24.7 nM.

B17: PP1104 MBP-5HVZ-PAPA-RN-19-H6 (VHH)
VHH: QVQLVESGGGLVQPGGSLRLSCAASGIDDSIGAMHWFRQAPGKGREFVAALSGTGTTSYADSVKGRFTISRDNAKNTVYLQMNSLKPEDTAVYYCAAAFPAGGDYWGQGTQVTVSS
notes: Form: Dimer
For the molecule B17, the IC50 in test [1] was determined as 3.5 nM. In addition, the midpoint of the response in test [2], the EC50, lay at 1.21 nM.

B18: MBP-5HVZ-R5A-D6-H6 (VHH, not shown: large carriers; small tags and cut ends)
VHH: QVQLVESGGGLVQPGGSLRLSCAASGNDWYINSAHWYRQAPGKEREFVASVSRGGSNNYRDSVKGRFTISRDNAKNTVYLQMNSLKPEDTAVYYCAALLETSSGDYTYWGQGTQVTVSS
Take B18: in test [3], the IC50 was 223 nM and the Kd is 35 nM.

B19: MBP-5HVZ-R5A-D4-H6 (VHH, not shown: large carriers; small tags and cut ends)
VHH: QVQLVESGGGLVQPGGSLRLSCAASGSAMMINRTHWFRQAPGKEREGVAGITWQGSTYYADSVKGRFTISRDNAKNTVYLQMNSLKPEDTAVYYCNAVAPVHENENYWGQGTQVTVSS
For the molecule B19, in test [3], the IC50 came out at 5.7 nM and the Kd came to 21.1 nM.

B20: PP930 MBP-5HVZ-R2b-D4-H6 (VHH)
VHH: QVQLVESGGGLVQPGGSLRLSCAASGSYASIASMHWFRQAPGKQREFVAGLTSGGSRIYGDSVKGRFTISRDNAKNTVYLQMNSLKPEDTAVYYCTALILHYAGMYDYWGQGTQVTVSS
notes: Form: Dimer
As to B20, a half-maximal effect in test [2] (EC50) was put at 3.18 nM.

B21: PP1112 MBP-5HVZ-PAPA-RN-28-H6 (VHH)
VHH: QVQLVESGGGLVQPGGSLRLSCAASGSQFSHNLMSWFRQAPGKQREFVAAITSFGSTGYADSVKGRFTISRDNAKNTVYLQMNSLKPEDTAVYYCAALSSEDTSHYPRNYWGQGTQVTVSS
notes: Form: Dimer
Regarding B21, the IC50 in test [1] is 10.5 nM. Also, the half-maximal effective concentration (EC50) in test [2] worked out at 1.36 nM.

B22: MBP-5HVZ-R5A-B3-H6 (VHH, not shown: large carriers; small tags and cut ends)
VHH: QVQLVESGGGLVQPGGSLRLSCAASGQLDRSNAMAWFRQAPGKGREWVASITSGASTQYADSVKGRFTISRDNAKNTVYLQMNSLKPEDTAVYYCAADRYRAIQRTQYSWGQGTQVTVSS
Take B22: in test [3], the IC50 is 35.9 nM and the Kd is ~1200 nM.

B23: PP1153 MBP-5HVZ-PAPA-R5d-D4-H6 (VHH)
VHH: QVQLVESGGGLVQPGGSLRLSCAASGSDFTINAMHWFRQAPGKQREFVATITSTSSTAYRDSVKGRFTISRDNAKNTVYLQMNSLKPEDTAVYYCAAFAVRDADTAGWTARDYWGQGTQVTVSS
notes: Form: Dimer
For B23, the midpoint of the response in test [2], the EC50, lay at 1.23 nM.

B24: PP1114 MBP-5HVZ-PAPA-RN-30-H6 (VHH)
VHH: QVQLVESGGGLVQPGGSLRLSCAASGIPASYLNMHWFRQAPGKQREWVAGAGGTNSNYYQDSVKGRFTISRDNAKNTVYLQMNSLKPEDTAVYYCAALDGAESYDYVYPVWGQGTQVTVSS
notes: Form: Dimer
Take B24: the IC50 in test [1] turned out to be 3.4 nM. The molecule further returned an EC50 in test [2] of 1.14 nM.

B25: PP1106 MBP-5HVZ-PAPA-RN-21-H6 (VHH)
VHH: QVQLVESGGGLVQPGGSLRLSCAASGLQTSDNAMHWFRQAPGKNRELVAGLTSGTSRNYGDSVKGRFTISRDNAKNTVYLQMNSLKPEDTAVYYCAAFPDVGDASSIGFVYWGQGTQVTVSS
notes: Form: Dimer
Regarding B25, the IC50 in test [1] is 9.7 nM. The same molecule returned an EC50 in test [2] of 2.52 nM.

B26: PP1113 MBP-5HVZ-PAPA-RN-29-H6 (VHH)
VHH: QVQLVESGGGLVQPGGSLRLSCAASGYILSENLTAWFRQAPGKAREVVATVTSGDYTNYDDSVKGRFTISRDNAKNTVYLQMNSLKPEDTAVYYCAAGTSDWEVKWSHWGQGTQVTVSS
notes: Form: Dimer
In the case of B26, the IC50 in test [1] stood at 4.9 nM. In test [2], this molecule yielded an EC50 of 0.34 nM.

B27: PP1105 MBP-5HVZ-PAPA-RN-20-H6 (VHH)
VHH: QVQLVESGGGLVQPGGSLRLSCAASGNYFEINKMHWFRQAPGKQREFVATIGSGGSTAYADSVKGRFTISRDNAKNTVYLQMNSLKPEDTAVYYCNALIYLADRRDGYYSYDYWGQGTQVTVSS
notes: Form: Dimer
In the case of B27, in test [1], the IC50 amounted to 7.2 nM. The same molecule had a concentration giving a half-maximal response (EC50) in test [2] of 1.24 nM.

B28: PP1109 MBP-5HVZ-PAPA-RN-25-H6 (VHH)
VHH: QVQLVESGGGLVQPGGSLRLSCAASGEDYSYNAAHWFRQAPGKEREWVAAINSGGGTYYADSVKGRFTISRDNAKNTVYLQMNSLKPEDTAVYYCAYLGALDRDGYDAWGQGTQVTVSS
notes: Form: Dimer
B28: the concentration for half-maximal inhibition (IC50) in test [1] was determined as 29.6 nM. Also, in test [2], a half-maximal response (EC50) required 1.06 nM.

B29: MBP-5HVZ-R5C-E1-H6 (VHH, not shown: large carriers; small tags and cut ends)
VHH: QVQLVESGGGLVQPGGSLRLSCAASGYIFSATVMHWFRQAPGKQREGVASINSTGSSQYADSVKGRFTISRDNAKNTVYLQMNSLKPEDTAVYYCAADGADVVYGNRYWGQGTQVTVSS
As to B29, in test [4], the IC50 was 4.5 nM and the Kd is 6.13 nM.

The values are drawn from patent publication US20240150440A1 (LUMEN BIOSCIENCE, published 2024).
